The source of these data is the supplement of paper PMC10567573.

This data set in a line: protein stability index of a GFP-peptide fusion (GPS, HEK-293T) (PSI 1-6); higher = more stable.
Where [1] appears, read: treatment: DMSO, c terminus: native.
The mark [2] stands for this setting: treatment: MLN4924 1 uM, 8 h, c terminus: native.
Where [3] appears, read: treatment: DMSO, c terminus: a fixed tail appended.
[4] abbreviates: treatment: MLN4924 1 uM, 8 h, c terminus: a fixed tail appended.

± gives the standard deviation.
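Also: 24-mer peptide tiles fused after GFP, lentivirally expressed, FACS-sorted into six equal bins by GFP/DsRed ratio, decoded by Illumina sequencing, PSI is the read-weighted mean bin number.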

For the sequence KISGGPHISYPPLHEWVLREGEE [MAGEA3], the protein stability index by setting is: under setting [1], 2.92 ± 0.62; under setting [2], 3.33 ± 0.43.

As for SVLLSWEIPENYNSAMPFKILYDD [PTPRD], the protein stability index is, setting by setting: under setting [3], 1.88 ± 0.26; under setting [4], 2.29 ± 0.22. Consider YTTEFHELEKIGSGEFGSVFKCVK [WEE1], for which the protein stability index was 2.49 ± 0.85 under setting [3] and 3 ± 0.47 under setting [4]. In the case of ECAMETTEEQTRQERQGPAKPEVL [NECAB1], the protein stability index was found to be 5.57 ± 0.33 under setting [3] and 5.6 ± 0.23 under setting [4]. The matching figures for IRPVAGYLSPRDFLSGLAFRVFHC [TPH1]: 2.1 ± 0.13 and 2.12 ± 0.1. Turning to FLDKSGSHGYDMSTFIRRYSRYLN [SNAP91], the protein stability index reads like this: under setting [3], 2.38 ± 0.4; under setting [4], 2.64 ± 0.49. Turning to ECLKRQGQREPGSLSRNNSFRRNV [FBXO34], the protein stability index under setting [3] amounted to 4.11 ± 0.26 and the protein stability index under setting [4] was found to be 4.22 ± 0.18. Turning to DAASVYTLPAGADFLMCYSVAEGY [CASP6], the protein stability index reads like this: under setting [3], 2.34 ± 0.22; under setting [4], 2.33 ± 0.25. Take TLEQHLNTLEGKKPGNNEGSGAPS [SNAP91]: the protein stability index was 4.81 ± 0.18 under setting [3] and 5.14 ± 0.08 under setting [4].

Regarding HTVPDFHLSSPAKNFFKKAAAALF [PLK2], the protein stability index was found to be 2.74 ± 0.96 under setting [3] and 2.65 ± 0.73 under setting [4]. Take KDGKLLAATLLLALLSCCLTVVSF [TNFSF13B]: the protein stability index by setting is: under setting [3], 3.26 ± 0.39; under setting [4], 3.35 ± 0.32. For the sequence AQTLLRLSGVQRVESVFFGGGTPS [RSAD1], the protein stability index was 2.43 ± 0.27 under setting [3] and 2.47 ± 0.3 under setting [4]. The matching figures for SIGALISKAHLEKVRSYVKRALAE [ALDH8A1]: 2.42 ± 0.51 and 2.6 ± 1.1. For GKKRCKDIKRLLVNFMYLQSLLQP [SMG5], the protein stability index under setting [3] is 2.428 ± 0.007 and the protein stability index under setting [4] turned out to be 2.48 ± 0.41. In the case of RQKVLSLPLPDPLKYYLLYYREK [PCMTD2], the protein stability index by setting is: under setting [1], 2.14 ± 0.18; under setting [2], 2.46 ± 0.19. TERMDKVGDALEEVLSKALSQRTI [GADD45A] had a protein stability index under setting [3] of 3.83 ± 0.26 and a protein stability index under setting [4] of 3.83 ± 0.13. On to GPALAGEPAGSLRELGVWRSLLRL [C2CD2L], for which the protein stability index is 2.66 ± 0.23 under setting [3] and 2.56 ± 0.03 under setting [4]. For VHVISLHIWELSSIKNSLKVAAIS [PTGFR], the protein stability index was found to be 2.86 ± 0.46 under setting [3] and 3.07 ± 0.32 under setting [4]. On to PQARMREENMERIGEEVRQLMEKL [BEX1], for which the protein stability index was 4.51 ± 0.33 under setting [3] and 4.52 ± 0.23 under setting [4]. For the sequence NKTGVSPYSKTLVLQTSEGKALQQ [TRIM9], the protein stability index came out at 4.19 ± 0.14 under setting [3] and 4.22 ± 0.073 under setting [4].

Consider LDEALKHVKETQPPETVQNWIELL [GOLPH3], for which the protein stability index by setting is: under setting [3], 3.94 ± 0.18; under setting [4], 4.17 ± 0.24.

In the case of MAAMFNGNYMEAKSVLIPVYGVSK [RHOBTB3], the protein stability index turned out to be 2.27 ± 0.35 under setting [3] and 2.12 ± 0.33 under setting [4]. In the case of RDGRRDRYSSDTTPLLNGSSQDRM [GOSR1], the protein stability index under setting [3] stood at 4.76 ± 0.07 and the protein stability index under setting [4] was found to be 4.85 ± 0.2.

On to QHEESTEGEADHSGYAGELGFRAF [UFD1], for which the protein stability index by setting is: under setting [3], 4.81 ± 0.31; under setting [4], 4.88 ± 0.31. For EAEQSLRNLEDIHMSLEKDIAAMT [TEKT4], the protein stability index reads like this: under setting [3], 4.58 ± 0.25; under setting [4], 4.8 ± 0.14. For LISSGMSSHKQGHTSSEYDMLREM [TAF7L], the protein stability index reads like this: under setting [3], 3.75 ± 0.23; under setting [4], 3.84 ± 0.19. EVELAYQEAMFNMATLNRTAAGLM [SEPHS2]: the protein stability index by setting is: under setting [3], 2.42 ± 0.46; under setting [4], 2.56 ± 0.68. As to IMNDLSNRVWSISQEPDPVQRLQA [TRIM14], the protein stability index turned out to be 3.16 ± 0.31 under setting [3] and 3.16 ± 0.17 under setting [4].

Regarding GKFIRLKNTSEQDQPMGGWEMIRK [LMNB1], the protein stability index runs as follows: under setting [3], 3.73 ± 0.083; under setting [4], 3.7 ± 0.2. For VKEISDKISKEEMVRRLKMVVKTF [PDS5B], the protein stability index under setting [4] came out at 2.24 ± 0.91. Take SGGHERSRDRRRSSDRSRDSSHER [BTBD10]: the protein stability index was 5.48 ± 0.18 under setting [3] and 5.59 ± 0.19 under setting [4]. Turning to RSLSACNKRVGMYLEGFDPFNQST [DLC1], the protein stability index by setting is: under setting [3], 2.85 ± 0.39; under setting [4], 2.81 ± 0.5.

Turning to LWFYNTSLKFFLNKPMLADVVFEI [RHOBTB3], the protein stability index reads like this: under setting [3], 2.82 ± 0.32; under setting [4], 3.04 ± 1.1. In the same order, the values of LQNKVPLLGSSTACIVVLDRTSHR [PPTC7] are 2.14 ± 0.16 and 2.32 ± 0.33. In the same order, the values of ADYFATFVQREEQLQFLIRYHRFI [CDS1] are 2.2 ± 0.54 and 2.37 ± 0.27.

For QGQPAMEGHCVIQVDVGDVNDNAP [PCDHGC5], the protein stability index amounted to 4.97 ± 0.5 under setting [3] and 4.78 ± 0.075 under setting [4]. For the sequence LAMLALLSPLSLAQYDSWPHYPEY [LOXL2], the protein stability index was determined as 3.22 ± 0.32 under setting [3] and 3.46 ± 0.16 under setting [4]. For the sequence HDGSSYLNSVERYDPKTNQWSSDV [KLHL20], the protein stability index runs as follows: under setting [3], 4.46 ± 0.25; under setting [4], 4.27 ± 0.4. Consider NGTYAGPAPAFQPFFFTGAFPFNM [ANKRD40], for which the protein stability index runs as follows: under setting [3], 2.32 ± 1.2; under setting [4], 2.51 ± 0.5. On to RLQELCHGWLRPEMRTKEQILELL [ZNF263], for which the protein stability index reads like this: under setting [3], 2.58 ± 0.11; under setting [4], 2.9 ± 0.12. On to FLGSSFSPVRCGGPGDASPRGCGA [WEE1], for which the protein stability index reads like this: under setting [3], 2.27 ± 0.34; under setting [4], 2.61 ± 0.48. Turning to TKHIHITQATETTTTRHKRTANPS [CLINT1], the protein stability index under setting [3] came out at 4.6 ± 0.19 and the protein stability index under setting [4] stood at 4.77 ± 0.13. For the sequence LLPLTELSVCPLEGSREHAFQITG [PLEKHN1], the protein stability index runs as follows: under setting [3], 2.88 ± 0.13; under setting [4], 2.83 ± 0.24. The sequence VGSLSWLRKQLQPTHCKYEGPRKA displayed a protein stability index under setting [3] of 2.87 ± 0.24 and a protein stability index under setting [4] of 2.9 ± 0.21.

Consider LIISCRKLFYFKIWAFLDVSFVER [FBXO39], for which the protein stability index by setting is: under setting [3], 3.43 ± 0.47; under setting [4], 2.9 ± 0.099. The matching figures for HVFQRQKSELSDGIAILVGSNDRV [TRIM55]: 3.18 ± 0.25 and 3.21 ± 0.21. Turning to FLVANFSQIETLTSVFQKKLCTAH [MATN2], the protein stability index is, setting by setting: under setting [3], 2.6 ± 0.56; under setting [4], 2.52 ± 0.49. In the case of TPAGLPPSRAKPPTEGAGSPAKAS [FBF1], the protein stability index by setting is: under setting [3], 5.38 ± 0.32; under setting [4], 5.4 ± 0.1. Regarding RKGCLRFQLPERGSRLCLYEDGTE [DFFB], the protein stability index by setting is: under setting [3], 3.34 ± 0.39; under setting [4], 3.47 ± 0.21. As to MEEVCGGEKPYLSPDILEEKHCEF [ATL3], the protein stability index stood at 5.15 ± 0.29 under setting [3] and 5.01 ± 0.14 under setting [4]. With NSLQSYQLSPNKHFSLRVQSRANG [PCDHGA10], the protein stability index is, setting by setting: under setting [3], 3.41 ± 0.077; under setting [4], 3.64 ± 0.42. As to RGRHEQSPTSRPRKVSSLPPRSC [C22orf15], the protein stability index by setting is: under setting [1], 3.06 ± 0.81; under setting [2], 3.5 ± 0.85.

For the sequence RITAAEALKHPWISHRSTVASCMH [CAMK2A], the protein stability index by setting is: under setting [3], 2.54 ± 0.19; under setting [4], 2.89 ± 0.19.
